Measurements from PMC6996395 (FASEB bioAdvances, 2019).

Target: Split-CFTR front half (N-term-TMD1-NBD1; aa 1-634) (UniProt P13569 1-634)
Experiment: proximity ligation

Split-CFTR front half (N-term-TMD1-NBD1; aa 1-634), sequence (P13569 1-634): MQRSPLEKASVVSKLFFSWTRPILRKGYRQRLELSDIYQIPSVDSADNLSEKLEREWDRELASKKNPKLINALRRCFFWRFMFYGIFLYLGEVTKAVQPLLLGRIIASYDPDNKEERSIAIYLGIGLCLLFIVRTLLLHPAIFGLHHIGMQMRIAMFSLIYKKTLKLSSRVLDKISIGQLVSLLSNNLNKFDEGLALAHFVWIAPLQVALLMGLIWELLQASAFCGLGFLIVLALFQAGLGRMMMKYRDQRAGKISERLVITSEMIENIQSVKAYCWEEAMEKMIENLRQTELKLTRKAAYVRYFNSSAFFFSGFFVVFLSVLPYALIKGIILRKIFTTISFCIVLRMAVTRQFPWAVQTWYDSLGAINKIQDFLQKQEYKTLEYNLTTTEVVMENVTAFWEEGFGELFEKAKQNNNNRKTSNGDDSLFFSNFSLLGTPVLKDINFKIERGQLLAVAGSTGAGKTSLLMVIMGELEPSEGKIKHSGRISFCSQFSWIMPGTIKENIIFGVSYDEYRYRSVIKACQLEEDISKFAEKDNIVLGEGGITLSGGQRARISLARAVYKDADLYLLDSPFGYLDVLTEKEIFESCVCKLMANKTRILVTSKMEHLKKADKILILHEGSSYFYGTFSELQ

CTCF of PLA signal (after PKA stimulation): 1.4
CTCF of PLA signal (after PKC + PKA stimulation): 5.28
CTCF of PLA signal (after PKC stimulation): 5.54
CTCF of PLA signal (basal): 0.33
B1: CFTR R-region R-6CA (S641A/T682A/S707A/S790A/T791A/S809A; aa 635-836) (domain or fragment, UniProt P13569 635-836, looked up)
chain: NLQPDFASKLMGCDSFDQFSAERRNSILTETLHRFSLEGDAPVSWTEAKKQSFKQTGEFGEKRKNSILNPINAIRKFSIVQKTPLQMNGIEEDSDEPLERRLSLVPDSEQGEAILPRISVISTGPTLQARRRQSVLNLMTHSVNQGQNIHRKTTAAARKVSLAPQANLTELDIYARRLSQETGLEISEEINEEDLKECFFDD
